Measurements: PMC5923229

Experiments:
[1] = molecular target: H46R/H48Q SOD1 artificial copper site mutant (UniProt P00441); assay: native MS; nanoESI of SOD1 at different protein concentrations in 200 mM NH4OAc (pH 6.8), gentle conditions; monomer and dimer signal compared; dimer to monomers
[2] = molecular target: H46R/H48Q SOD1 with ebselen conjugated at Cys111 (UniProt P00441); assay: as above

Substance	Kd [1]	Kd [2]
H46R/H48Q SOD1 artificial copper site mutant (from UniProt P00441 2-154) (enzyme)	5300 nM	
H46R/H48Q SOD1 with ebselen conjugated at Cys111 (from UniProt P00441 2-154) (enzyme)		220 nM
